Where two headings read alike, the source gives them in different places.
What was measured:
[1] = target: Ebola virus (EBOV, Zaire) glycoprotein GP, wild type (Ebola virus (EBOV, Zaire)) (UniProt Q05320)
[2] = target: Sudan virus (SUDV) glycoprotein GP (Sudan virus (SUDV)) (UniProt Q7T9D9)
[3] = target: Sudan virus (SUDV) glycoprotein GP (Sudan virus (SUDV)) (UniProt Q7T9D9); remark: listed apart in the source

Row | Substance | IC50, neutralisation of EBOV GP pseudovirus (luciferase, Huh7 cells) [1] [µg/mL] | IC90, neutralisation of EBOV GP pseudovirus (luciferase, Huh7 cells) [1] [µg/mL] | IC90, neutralisation of SUDV GP pseudovirus (luciferase, Huh7 cells) [2] [µg/mL] | IC50, neutralisation of SUDV GP pseudovirus (luciferase, Huh7 cells) [3] [µg/mL] | IC90, neutralisation of SUDV GP pseudovirus (luciferase, Huh7 cells) [3] [µg/mL]
1 | H27Q/S52Y/G66R-LC (ADI-15946 light chain triple mutant) (antibody) | 0.15 | 0.86 | – | – | –
2 | ADI-15878 (antibody) | – | – | 0.3 | 0.04 | 0.9
3 | A50Y/S52Y/L54R-LC (ADI-15946 light chain triple mutant) (antibody) | 0.15 | 1.1 | – | – | –

Reference: publication PMC13006735
